This passage reports tissue uptake and EC50 results from patent US8992886B2, “Cyclic peptide analogues for non-invasive imaging of pancreatic beta-cells” (Board of Regents, the University of Texas System, priority 2009, dated 2015).

A short description of one data set: in vivo. On the set-up: species or system Sprague-Dawley rats. Conditions: Sprague-Dawley, rat, iv, total radioactivity. How it is done:
Given this encouraging in vitro result, the tissue distribution of both conjugates in normal Sprague-Dawley rats was examined. […] The radiolabeled compounds were diluted with saline and be injected into rats (n=4 at each time point) via the tail vein. The animal number at each time point was chosen for statistical analysis. […] At the selected post-injection time points, animals were sacrificed, and organs of interest removed, weighed, and counted. The percent injected dose per gram (% ID/g) and percent injected dose per organ (% ID/organ) was calculated by comparison to a weighed, counted standard. Pharmacokinetic parameters were estimated by using either one- or two-compartment model.

The target of the next data set is GLP-1R (Homo sapiens, UniProt P43220). As to the kind of experiment: cAMP accumulation in HEK293 cells stably expressing GLP-1R-GFP. Format: cell-based. On the set-up: GFP; expressed in transfected cells; host or cells: HEK293. The text has this:
In all cases, reactions were stopped with 1.2 M trichloroacetic acid and cAMP was isolated by the two column chromatographic method.
On the technique in general: Changes in cAMP serve as a functional read-out for many G protein-coupled receptors.

Bridge positions count the residues as written; N and C are the ends. Square brackets hold non-standard residues; d marks the D form. Peptide text beside a SMILES is read from it. * marks the point of attachment. X1 = O=C(O)CN1CCN(CC(=O)O)CCN(CC(=O)NCCN2C(=O)CC(*)C2=O)CCN(CC(=O)O)CC1; Ahx = NCCCCCC(=O)O

Chain of GLP-1R (P43220 24-463): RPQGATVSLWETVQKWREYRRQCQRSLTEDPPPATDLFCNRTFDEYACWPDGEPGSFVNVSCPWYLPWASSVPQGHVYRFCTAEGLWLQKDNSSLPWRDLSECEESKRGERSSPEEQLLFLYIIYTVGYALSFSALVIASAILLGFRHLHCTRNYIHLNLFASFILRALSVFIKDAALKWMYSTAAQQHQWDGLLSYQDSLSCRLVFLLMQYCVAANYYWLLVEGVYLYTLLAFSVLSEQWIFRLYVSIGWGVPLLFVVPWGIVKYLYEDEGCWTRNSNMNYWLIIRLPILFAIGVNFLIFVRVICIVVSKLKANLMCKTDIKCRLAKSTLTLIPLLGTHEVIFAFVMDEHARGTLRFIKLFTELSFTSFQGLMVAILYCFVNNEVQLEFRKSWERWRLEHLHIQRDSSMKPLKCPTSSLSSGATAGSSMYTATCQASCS

Usually tissue uptake stands for the percentage of the injected dose found per gram of tissue. For the compound `CC[C@H](C)[C@H](NC(=O)[C@H](Cc1ccccc1)NC(=O)[C@H](CCC(=O)O)NC(=O)[C@H](CCCCN)NC(=O)[C@H](C)NC(=O)[C@H](C)NC(=O)[C@H](CCC(N)=O)NC(=O)CNC(=O)[C@H](CCC(=O)O)NC(=O)[C@H](CC(C)C)NC(=O)[C@H](Cc1ccc(O)cc1)NC(=O)[C@H](CO)NC(=O)[C@H](CO)NC(=O)[C@@H](NC(=O)[C@H](CC(=O)O)NC(=O)[C@H](CO)NC(=O)[C@@H](NC(=O)[C@H](Cc1ccccc1)NC(=O)[C@@H](NC(=O)CNC(=O)[C@H](CCC(=O)O)NC(=O)[C@H](C)NC(=O)[C@@H](N)Cc1c[nH]cn1)[C@@H](C)O)[C@@H](C)O)C(C)C)C(=O)N[C@@H](C)C(=O)N[C@@H](Cc1c[nH]c2ccccc12)C(=O)N[C@@H](CC(C)C)C(=O)N[C@H](C(=O)N[C@@H](CCCCN)C(=O)NCC(=O)N[C@@H](CCCNC(=N)N)C(=O)NCCCCCC(=O)N[C@@H](CSC1CC(=O)N(CCNC(=O)CN2CCN(CC(=O)O)CCN(CC(=O)O)CCN(CC(=O)O)CC2)C1=O)C(N)=O)C(C)C` (stereo partly drawn) (64Cu complex, metal not drawn) [L-GLP-1, [Ala^8]GLP-1-Ahx-Cys], the tissue uptake at 20 min in “in vivo” (% ID/g blood) was 0.78 ± 0.14 %ID/g; in the data set “in vivo” (% ID/g fat), 0.35 ± 0.1 %ID/g; in “in vivo” (% ID/g heart), 0.39 ± 0.23 %ID/g; in the data set “in vivo” (% ID/g kidney), 30.6 ± 6.76 %ID/g; in “in vivo” (% ID/g large int), 0.19 ± 0.1 %ID/g; in “in vivo” (% ID/g liver) it was 1.13 ± 0.42 %ID/g. The tissue uptake at 20 min in “in vivo” (% ID/g lung) worked out at 1.92 ± 0.08 %ID/g; in “in vivo” (% ID/g muscle), 0.12 ± 0.01 %ID/g; in “in vivo” (% ID/g pancreas) it was 0.34 ± 0.14 %ID/g; in the data set “in vivo” (% ID/g small int), 0.38 ± 0.21 %ID/g; in the data set “in vivo” (% ID/g spleen), 0.28 ± 7 %ID/g; in “in vivo” (% ID/g stomach) it was 0.64 ± 0.28 %ID/g. Also, the tissue uptake at 1 h is 0.47 ± 0.03 %ID/g in “in vivo” (% ID/g blood); 0.11 ± 0.1 %ID/g in “in vivo” (% ID/g heart); 34.3 ± 5.42 %ID/g in the data set “in vivo” (% ID/g kidney); 0.04 ± 0.04 %ID/g in the data set “in vivo” (% ID/g large int); 2.03 ± 0.25 %ID/g in the data set “in vivo” (% ID/g liver); 0.9 ± 0.14 %ID/g in the data set “in vivo” (% ID/g lung). Further, the tissue uptake at 1 h was determined as 0.11 ± 0.11 %ID/g in the data set “in vivo” (% ID/g pancreas), 0.45 ± 0.24 %ID/g in “in vivo” (% ID/g small int), 0.18 ± 0.08 %ID/g in “in vivo” (% ID/g spleen) and 0.46 ± 0.28 %ID/g in the data set “in vivo” (% ID/g stomach). The tissue uptake at 4 h in the data set “in vivo” (% ID/g blood) came out at 0.62 ± 0.15 %ID/g; in “in vivo” (% ID/g fat), 0.72 ± 0.57 %ID/g; in “in vivo” (% ID/g heart) it was 0.2 ± 0.06 %ID/g; in “in vivo” (% ID/g kidney), 41.4 ± 4.98 %ID/g; in “in vivo” (% ID/g large int), 0.67 ± 0.47 %ID/g; in “in vivo” (% ID/g liver), 3.34 ± 0.58 %ID/g. Also, the tissue uptake at 4 h in “in vivo” (% ID/g lung) was 1.02 ± 0.13 %ID/g; in “in vivo” (% ID/g pancreas), 0.4 ± 0.56 %ID/g; in the data set “in vivo” (% ID/g small int), 0.93 ± 0.43 %ID/g; in the data set “in vivo” (% ID/g spleen) it was 0.4 ± 0.35 %ID/g; in the data set “in vivo” (% ID/g stomach) it was 0.5 ± 0.15 %ID/g. The tissue uptake at 24 h in the data set “in vivo” (% ID/g blood) worked out at 0.07 ± 0.07 %ID/g; in “in vivo” (% ID/g fat), 0.01 ± 0.01 %ID/g; in the data set “in vivo” (% ID/g kidney), 45.8 ± 2.94 %ID/g; in the data set “in vivo” (% ID/g large int), 4.83 ± 1.16 %ID/g; in the data set “in vivo” (% ID/g liver) it was 1.43 ± 0.21 %ID/g; in “in vivo” (% ID/g lung) it was 0.83 ± 0.18 %ID/g. The tissue uptake at 24 h was 0.08 ± 0.1 %ID/g in “in vivo” (% ID/g muscle); 0.03 ± 0.06 %ID/g in the data set “in vivo” (% ID/g pancreas); 0.42 ± 0.16 %ID/g in “in vivo” (% ID/g small int); 0.38 ± 0.47 %ID/g in “in vivo” (% ID/g spleen); 0.11 ± 0.04 %ID/g in “in vivo” (% ID/g stomach).
In general, EC50 refers to the midpoint of the concentration-response curve. Read a low EC50 as an effect from little substance. For `CC[C@H](C)[C@H](NC(=O)[C@H](Cc1ccccc1)NC(=O)[C@H](CCC(=O)O)NC(=O)[C@H](CCCCN)NC(=O)[C@H](C)NC(=O)[C@H](C)NC(=O)[C@H](CCC(N)=O)NC(=O)CNC(=O)[C@H](CCC(=O)O)NC(=O)[C@@H]1CCCCNC(=O)CC[C@H](NC(=O)[C@H](CC(=O)O)NC(=O)[C@H](CO)NC(=O)[C@@H](NC(=O)[C@H](Cc2ccccc2)NC(=O)[C@@H](NC(=O)CNC(=O)[C@H](CCC(=O)O)NC(=O)[C@@H](C)NC(=O)[C@@H](N)Cc2c[nH]cn2)[C@@H](C)O)[C@@H](C)O)C(=O)N[C@@H](CO)C(=O)N[C@@H](CO)C(=O)N[C@@H](Cc2ccc(O)cc2)C(=O)N1)C(=O)N[C@H]1CCC(=O)NCCCC[C@@H](C(=O)NCC(=O)N[C@@H](CCCNC(=N)N)C(=O)NCCCCCC(=O)N[C@@H](CSC2CC(=O)N(CCNC(=O)CN3CCN(CC(=O)O)CCN(CC(=O)O)CCN(CC(=O)O)CC3)C2=O)C(N)=O)NC(=O)[C@H](C(C)C)NC(=O)[C@H](CC(C)C)NC(=O)[C@H](Cc2c[nH]c3ccccc23)NC1=O` (stereo partly drawn) [EM2196, HXEGTFTSDESSYKEGQAAKEFIEWLVKG R, wherein X is D-Ala] (H-H[dA]EGTFTSDESSYKEGQAAKEFIEWLVKGR[Ahx]C(X1)-NH2; lactam 10-14, 24-28), the 50% effective concentration (EC50) on GLP-1R was roughly 1 nM.
